Measured values published in patent US20220112288A1 (published 2022).

How the values were obtained:
[1] = molecular target: T1, human CD4 on human PBMCs (human, UniProt P01730 26-458); experiment: FACS, clonal hybridoma supernatant on PBMCs
T1 construct: whole, on cells; also called hCD4

[2] = molecular target: T2, human CD4 (human, UniProt P01730 26-458); experiment: FACS, clonal hybridoma supernatant on human PBMCs
T2 construct: whole, on cells; also called hCD4

Binder	% CD4 Stain [1] [%]	gMFI of CD4+ [1] [gMFI]	% CD4 Stain [2] [%]	gMFI of CD4+ [2] [gMFI]
75110_07J02A (antibody, V domains shown) VH: EVQLVESGGGLVQPGGSLRLSCAASGFTFSSYWMSWVRQAPGKGLEWVANIKEDGSEKYYVDSVKGRFTISRDNAKNSLYLQMNSLRAEDTAVYYCARDGSYSGYGMDVWGQGTTVTVSS VL: AIQMTQSPSSLSASVGDRVTITCRASQGIRNDLGWYQQKPGKAPKLLIYAASSLQSGVPSRFSGRGSGTDFALTISSLQPEDFATYYCLLDYNYPYTFGQGTRLEIK	33.4	228000		
75110_08A13A (antibody, V domains shown) VH: EVQLVESGGGLVQPGGSLRLSCAASGFIFSSYWMSWVRQAPGKGLEWVANIKQDGSEKYYMDSVKGRFTISRDNAKNSLYLQMNSLRAEDTAVYYCARDNSYYYYGMDVWGQGTTVTVSS VL: AIQMTQSPSSLSASVGDRVTITCRASQGIRDDLGWYQQKPGKAPKLLIFAASSLQSGVPSSFSGSGSGTDFTLTISSLQPEDFATYYCLHHYNYPYTFGQGTKLEIK	30.3	140000		
75110_10K21A (antibody, V domains shown) VH: EVQLVESGGGLVQPGGSLRLSCAASGFTFSSYWMTWVRQAPGKGLEWVANIKQDGSEKYYVDSVKGRFTISRDNAKNSLYLQMNSLRAEDTAVYYCVRDRYDALDIWGQGTMVTVSS VL: AIQMTQSPSSLSASVGDRVTITCRASQGIRNDLNWYQQKPGKAPKLLIYAASSLQSGVPSRFSGSGSGTDFTLTISSLQAEDFATYYCLKDYNYPYTFGQGTKLEIK	29	119000		
75110_07N04A (antibody, V domains shown) VH: QVQLQESGPGLVKPSETLSLTCSVSGVSSTSFYWSWIRQPAGKGLDWIGRIYTSGSTNYNPSLKSRVTMSVDTSKNQFSLKLSSVTAADTAVYYCARDPGYSDAFAIWGQGTMVTVSS VL: not shown	33.8	104000		
75110_01A06A (antibody, V domains shown, Tested as clonal hybridoma supernatant of an AlivaMab Mouse Kappa hybridoma (detected with anti-mouse Fc); Kappa light chain; also called Sib2.1) VH: EVQLVESGGGLVQPGGSLRLSCAASGFTFSSYWMSWVRQAPGKGLEWVANINEDGNEKYYVDSVKGRLTISRDNAKNSLYLQMNSLRAEDTAVYFCAREGGQWLSLDYWGQGALVTVSS VL: DIQMTQSPSSVSASVGDRVSITCRASQGISSWLAWYQQKPGKAPKILIYGASSLQSGVPSRFSGSGSGTDFTLTISSLQPEDFATYYCQQANSFPWTFGQGTKVEIK			33.7	115000
75110_09N20A (antibody, V domains shown) VH: EVQLVESGGGLVQPGGSLRLSCAASGFTFSSYWMSWVRQAPGKGLEWVANINEDGSEKYYVDSVKGRFTISRDNAKNSLYLQMNSLRAEDTAVYYCVREGGQWLALDYWGQGTLVTVSS VL: DIQMTQSPSSVSASVGDRVTITCRASQGISSWLAWYQQKPGKAPKLLIYAASSLQSGVPSSFSGSGSGTDFTLTINSLQPEDFATYYCQQANSFPWTFGQGTKVAIK	37.5	227000		
75110_01C18A (antibody, V domains shown, Tested as clonal hybridoma supernatant (AlivaMab Mouse Kappa; anti-mouse Fc detection)) VH: EVQLVESGGGLIQPGGSLRLSCAASGFTVSSNYMNWVRQAPGKGLEWVSVIYAGDNTYSADSVKGRFTISRDNSNNTLCLQMNSLRAEDTAVYYCAREGGTTGAFDIWGQGTMVTVSS VL: DIQMTQSPSSVSASVGDRVTITCRASQGINSWLAWYQQKPGKAPKLLIYAASSLQSGVPSRFSGSGSGTDFTLTISSLQPEDFATYYCQQGNSFPYTFGQGTKLEIK			34.1	205000
75110_03D16A (antibody, V domains shown, Tested as clonal hybridoma supernatant (AlivaMab Mouse Kappa; anti-mouse Fc detection); also called Sib2.5) VH: EVQLVESGGGLVQPGGSLRLSCAASGFTFSSYWMSWVRQAPGKGLEWVANINQDGGEKYYVDSVKGRFTISRDNAKNSLYLQMNSLRAEDTAVYYCVREGGQWLALDYWGQGTLVTVSS VL: DIQMTQSPSSVSASVGDRVTITCRASQGISSWLTWYQQKPGKAPKFLIYAASSLQSGVPSRFSGSGFGTDFTLTISSLQPEDFATYYCQQANSFPWTFGQGTKVEIK			35.6	207000
75110_07H07A (antibody, V domains shown) VH: EVQVVESGGGLVQPGGSLRLSCAASGFTFSSYWMSWVRQAPGKGLEWVANIKEEGSEKYYVDSVKGRFTISRDNAKNSLYLQMNSLRAEDTAVYYCVREGGQWLALDYWGQGTLVTVSS VL: DIQMTQSPSSVSGSVGDRVTITCRASQGISSWLAWYQQKPGKAPKLLIFGASSLQSGVPSRFSGSGSGTDFTLTISSLQPEDFATYYCQQANSFPWTFGQGTKVQIK	37.1	204000		
75110_02N15A (antibody, V domains shown, Tested as clonal hybridoma supernatant (AlivaMab Mouse Kappa; anti-mouse Fc detection); also called Sib2.3) VH: EVQLVESGGGLVQPGGSLRLSCAASGFTFSSYWMSWVRQAPGKGLEWVANINEDGNEKYYVDSVKGRFTISRDNAKNSLFLQMNSLRAEDTAVYFCAREGGQWLALDHWGQGALVTVSS VL: DIQMTQSPSSVSASVGDRVTITCRASQGISSWLAWYQQKPGKAPKFLISGASSLQSGVPSRFSGSGSGTDFTLTISSLQPEDFATYYCQQANSFPWTFGQGTKVEFK			39	253000
75110_09G15A (antibody, V domains shown) VH: EVQLVESGGGLVQPGGSLRLSCAASGFTFSDYWMSWVRQAPGKGLEWVANINQDGSEKYSVDSVKGRFTISRDNAKNSLYLQMNSLRAEDTAIFYCAREGGQWLALDYWGQGTLVTVSS VL: DIQMTQSPSSVSASVGDRVTITCRASQGISSWLAWYQQKPGKAPKLLIYGASSLQSGVPSRFSGSGSGTDFTLTINSLQPEDFTTYYCQQANIFPWTFGQGTKVEIK	37.3	237000		
75110_01D24A (antibody, V domains shown, Tested as clonal hybridoma supernatant (AlivaMab Mouse Kappa; anti-mouse Fc detection)) VH: QVQLQQWGAGLLKPSETLSLTCAVYGGSFSGYYWSWIRQPPGKGLEWIGEINHSGSTNYNPSLKSRVTISVDTSENQFSLKLNSVTAADTAVYYCARLVNWFDPWGQGTLVTVSS VL: EIQMTQSPSSVSASVGDRVTITCRASQDISNWLAWYQQKPGKAPNLLIFAASSLQTGVPSRFSGSGSGTDFTLTISSLQPDDFATYYCQQANSFPYSFGQGTNLGIK			32.9	134000
75110_01N04A (antibody, V domains shown, Tested as clonal hybridoma supernatant (AlivaMab Mouse Kappa; anti-mouse Fc detection); also called Sib1.13) VH: EVQLVESGGGLVQPGGSLRLSCAASGFTFSNYDMHWVRQATGKGLEWVSTIGTAGDTYYPGSVKGRFTISRENAKNSLYLQMNSLRAGDTAVYYCARGGDFYYGLDVWGQGTTVTVSS VL: not shown			37.2	205000
75110_01G11A (antibody, V domains shown, Tested as clonal hybridoma supernatant (AlivaMab Mouse Kappa; anti-mouse Fc detection); also called Sib1.6) VH: EVQLVESGGGLVQPGGSLRLSCAASGFTFSSYDMHWVRQATGKGLEWVSTIGTAGDTYYPGSVKGRFTISRENARNSLFLQMNSLRAGDTAVYYCARGGDYYYGMDVWGQGTTVTVSS VL: EIVLTQSPGTLSLFPGERATLSCRASQNTYSSYLAWYQQKPGQAPRLLIYGASNRATGIPDRFSGSGSGTDFTLTISRLEPEDFAVYYCQQHGTSPFTFGPGTKVDIK			39	164000
75110_01K10A (antibody, V domains shown, Tested as clonal hybridoma supernatant (AlivaMab Mouse Kappa; anti-mouse Fc detection); also called Sib1.3) VH: EVQLVESGGALVQPGGSLRLSCAASGFTFRNYDMHWVRQATGKGLEWVSTIGTAGDTYYPGSVKGRFTISRENAKNSLYLQMNSLRAGDTAVYYCARGGDYYYGMDVWGQGTTVTVSS VL: EIVLTQSPDTLSLSPGERATLSCRASQSLSSVYLAWYQQKPGQAPRLLIYGASSRATGIPDRFSGTGSGTDFTLTISRLEPEDFAVYYCQQYGSSPFTFGPGTKVDIK			38	191000
75110_10N21A (antibody, V domains shown) VH: EVQLVESGGGLVQPGGSLRLSCAASGFTFSSYDMHWVRQVTGKGLEWVSTIGTAGDTYYPGSVKGRFTISRENAKNSLYLQMNSLRAGDTAVYYCARGGYYYYGMDVWGQGTTVTVSS VL: EIVLTQSPGTLSLSPGERATLSCRASQSFISSYLAWYQQKPGQAPRLLIYGASSRATGIPDRFSGSGSGTDFTLTISRLDPEDFAVYYCQQSGNSPFTFGPGTKVDVK	38.3	203000		
75110_10L22A (antibody, V domains shown) VH: EVQLVESGGGLVQPGGSLRLSCAASGFTFSSYDMHWVRQATGKGLEWVSTIGTAGDTYYPGSVKGRFTISRENAKNSLYLQMNGLRAGDTAVYYCARGNYFYYGVDVWGQGTTVTVSS VL: not shown	34.3	77400		
75110_02I18A (antibody, V domains shown, Tested as clonal hybridoma supernatant (AlivaMab Mouse Kappa; anti-mouse Fc detection); also called 75110_02118A; Sib1.14) VH: EVQVVESGGGLVQPGGSLRLSCAASGFTFSSYDMHWVRQATGKGLEWVSTIGTAGDTYYPGSVKGRFTISRENAKNSLYLQMNSLRAGDTAVYYCARGGYYYYGMDVWGQGTTVTVSS VL: EIVLTQSPGTLSLSPGERATLSCRASQSVSSSYLAWYQQKPGQSPRLLIHGASSRATGIPDRVSGSGSGTDFTLTISRLEPEDFAVYYCQQYGSSPFTFGPGTKVDIK			40.5	162000
75110_01E08A (antibody, V domains shown, Tested as clonal hybridoma supernatant (AlivaMab Mouse Kappa; anti-mouse Fc detection); also called Sib1.11) VH: EVQLVESGGGLVQPGGSLRLSCAASGFTFNNYDMHWVRQATGKGLEWVSTIGTAGDTYYPASVKGRFTIYRENAKNSLYLQMNSLRAGDTAVYYCARGGDYYYGMDVWGQGTTVTVSS VL: not shown			36.5	113000
75110_07J24A (antibody, V domains shown) VH: QAQLQESGPGLVKPSETLSLTCTVSGGSISSYYYNWIRQPAGKGLEWIGRIYTSGRTDYNPSLKSRVTMSADTSKNQFSLKLSSVTAADTAVYYCARDEGPTDAFDIWGQGTMVTVSS VL: DIVMTQTPLSLPVTPGEPASISCRSSQSLLDSDDGNTYLDWYLQKPGQSPHLLIYTLSYRASGVPDRFSGSGSGSDFTLKISRVEAEDVGVYYCMQRIEFPFTFGPGTKVDIK	28.8	28400		
75110_08F20A (antibody, V domains shown) VH: QVQLQESGPGLVKPSETLSLTCSVSGGSISTYYWSWIRQPAGKGLEWIGRICTTENTNYNPSLKSRVTMSIDSSKNQFSLKLSSVTAADTAVYYCARDLERLNYYGMDVWGQGATVTVSS VL: DIQMTQSPSSLSASVGDRVTITCQASQDISKYLNWYQQKPGIAPKLLIYDASNLETGVPSRFSGSGSGTDFTFTISSLQPEDFATYYCQQYDSLPITFGQGTRLEIK	33.2	307000		
75110_08G08A (antibody, V domains shown) VH: QVQLQESGPGLVKPSETLSLTCSVSGGSISTYYWSWIRQPAGKGLEWIGRICTTENTNYNPSLKSRVTMSIDSSKNQFSLKLSSVTAADTAVYYCARDLERLNYYGMDVWGQGATVTVSS VL: DIQMTQSPSSLSASVGDRVTITCQASQDISNYLNWYQQKPGIAPKLLIYDASNLETGVPSRFSGSGSGTDFTFTISSLQPEDIATYYCQQYDSLPITFGQGTRLEIK	32.2	324000		
